# B1: c-Myc (structured_DNA)
# DNA: TGAGGGTGGGTAGGGTGGGTAA
# B2: VEGF (structured_DNA)
# DNA: GACCCCGCCCCCGGCCCGCCCCCG
# B3: Bcl2 (structured_DNA)
# DNA: GGGCGCGGGAGGAATTGGGCGGG
# B4: TBA T4G (structured_DNA)
# DNA: GGTGGGTGTGGTTGG
# B5: B-DNA hairpin (structured_DNA)
# DNA: GAAAAACCCCCTTTTTC
# Molecular target: Nb55 (Lama glama (llama immune VHH library), UniProt PDB:9GXH_1)
# Assay: ITC
row,Binder,binding result
1,B1,no binding
2,B2,no binding
3,B3,no binding
4,B4,no binding
5,B5,no binding

# From article PMC12117401
